± gives the standard deviation of the averaged measurements.
Tested on: ATP
Assay: switch fluorescence ratio, 500 uM ATP over buffer (Cy3 cluster intensity, sum of 5 cycles each) (fold (ratio)); higher = stronger signal-on switching upon ATP binding; sequences stand for … in TCGTCGGCAGCGTCAGATGTGTATAAGAGACAGTTTTTTTTTTTTTTTTTTTTTTTTT…TC
Conditions: aptamer strand: ATP DNA aptamer (quencher-CACCTGGGGGAGTATTGCGGAGGAAGG + anchor), 100 nM annealed; ATP concentration: 500 uM
Method in brief: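 Five buffer/ATP imaging cycles were run on Cy3-labelled switching-strand clusters on a modified Illumina MiSeq flow-cell, with NaOH stripping and re-annealing between cycles. In each cycle, clusters annealed to 100 nM quencher-labelled ATP aptamer were imaged in selection buffer, then after 15 min with 500 uM ATP at 22 °C. Per cluster, the fluorescence ratio is summed target-cycle over summed buffer-cycle Cy3 intensity, averaged per switch-domain sequence. Only clusters within 100-1000 RFU were kept.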
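Further: ATP exposure 15 min at 22 °C before imaging.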

Row | Sequence | switch fluorescence ratio
1 | GATCGCCGTT | 1.07 ± 0.063
2 | GATTATGGCG | 1.047 ± 0.0054
3 | TTTTTGTTTA | 0.971 ± 0.038
4 | GAGGGAAACA | 1.01 ± 0.017
5 | TTTTTCGTTT | 0.997 ± 0.034
6 | CCTGTTTATT | 0.974 ± 0.012
7 | TTAACAGTGT | 0.964 ± 0.035
8 | ACTTTCTAGC | 1.07 ± 0.029
9 | TTTTGCTGGA | 1.02 ± 0.031
10 | AACTTTTAAT | 1.019 ± 0.0032
11 | TGAATTTAGA | 0.986 ± 0.025
12 | GACTAGACGG | 1.13 ± 0.041
13 | TTGGTTTTAG | 1 ± 0.033
14 | ATGTCACAAA | 1.03 ± 0.059
15 | AGGTTTTGCA | 0.991 ± 0.019
16 | GGGTCTGACT | 0.9998 ± 0.0017
17 | AATTGAACGG | 0.9995 ± 0.0042
18 | CGCTGATTTG | 1.002 ± 0.0074
19 | TGGTGGTTCT | 0.987 ± 0.029
20 | CCGCGTACGG | 2.03 ± 0.22
21 | CTACGTAATG | 3.16 ± 0.27
22 | TAAGGGTTTA | 1.06 ± 0.1
23 | TTTTCATTAG | 1.03 ± 0.026

Row | Sequence | switch fluorescence ratio
24 | ATGGTGAATG | 0.978 ± 0.017
25 | CATATATTCT | 0.977 ± 0.033
26 | ACGGTTTTAA | 1 ± 0.03
27 | CGGAAATTTG | 1.02 ± 0.032
28 | TTATGATGGA | 0.991 ± 0.013
29 | GTTGATGGGG | 0.984 ± 0.047
30 | GATAGGGTAT | 0.986 ± 0.015
31 | CGATAGTTGT | 1.27 ± 0.38
32 | GCTCGGTCGG | 1.02 ± 0.037
33 | CCAGGGTGCT | 2 ± 0.39
34 | CTATGTGTGG | 0.976 ± 0.021
35 | TCGGGTTGTG | 0.959 ± 0.031
36 | GGTGGGGCAG | 0.9643 ± 0.0041
37 | GGGTTAGTAG | 1 ± 0.017
38 | ATGAGAACTC | 1.024 ± 0.0051
39 | TGTTGGGGAT | 0.983 ± 0.029
40 | GCGAAGGCGT | 0.9709 ± 0.0033
41 | CGAATCGGTG | 1.01 ± 0.019
42 | ATCAGTATAT | 0.992 ± 0.021
43 | TTGGACAGTT | 0.99 ± 0.04
44 | GGTCCTCGTG | 0.998 ± 0.027
45 | AAAATTAGGA | 1.02 ± 0.069
46 | ATGATTAGTT | 1.01 ± 0.046

Row | Sequence | switch fluorescence ratio
47 | GGGGTGTGTG | 0.986 ± 0.021
48 | TTTTTTCCCT | 1.08 ± 0.12
49 | CAAGTTATGT | 1 ± 0.044
50 | TACGGAGGGT | 1.22 ± 0.31
51 | AATCGTACAG | 1.07 ± 0.019
52 | GGTTAATGGA | 0.9833 ± 0.0035
53 | CGGTTGTACC | 1.007 ± 0.0079
54 | GTTTGGGGTG | 0.999 ± 0.043
55 | CTTTGGTATA | 0.977 ± 0.0051
56 | CGTGAGGGGG | 1.01 ± 0.012
57 | GATTTTGCCA | 0.9675 ± 0.0045
58 | CGAAAGCAGG | 1.1681 ± 0.00099
59 | GACCACAT | 1.05 ± 0.004
60 | TAAGGGTCAG | 0.9953 ± 0.0012
61 | CAAGTAAAAG | 1.01 ± 0.011
62 | CAGGGGGGAG | 0.992 ± 0.035
63 | TCCACGGATG | 1.04 ± 0.047
64 | CAACGGGGGA | 1 ± 0.032
65 | TGATGGGGTA | 1.04 ± 0.019
66 | GGGTGAAACA | 0.987 ± 0.069
67 | TAGTTAATCG | 0.968 ± 0.017
68 | AGTATATCGC | 1 ± 0.022
69 | AAGTTATAAC | 0.956 ± 0.067

Row | Sequence | switch fluorescence ratio
70 | GCACGGGAGG | 1.01 ± 0.032
71 | TAAAGTCATA | 1.01 ± 0.022
72 | TGCTAGAACT | 0.972 ± 0.019
73 | TTCCGTATTT | 1.15 ± 0.012
74 | AGTATGTAAA | 1.02 ± 0.017
75 | TTTTGGACTA | 1.05 ± 0.081
76 | TTTTACCGTA | 1.04 ± 0.034
77 | TTTTCTGCGT | 1.02 ± 0.043
78 | TACAAAAAGG | 0.981 ± 0.023
79 | ACTGGATCCA | 1.01 ± 0.013
80 | TAAGCTAAGG | 1.04 ± 0.016
81 | ACGGGGTTTC | 1.01 ± 0.021
82 | ATTGCTTACG | 1.14 ± 0.19
83 | AGTGGGAGAG | 1.02 ± 0.06
84 | GATGCGATGT | 1.18 ± 0.036
85 | AGTTGCGGGA | 1.0114 ± 0.00031
86 | ATGGAAAAGG | 0.9916 ± 0.0094
87 | GAGTATATGT | 0.9998 ± 0.0099
88 | GGTTAAGGAT | 0.9884 ± 0.0023
89 | TAATCTTGGG | 1 ± 0.011
90 | GAAATGGCGT | 0.986 ± 0.038
91 | ATCTGAGTAG | 0.999 ± 0.023
92 | CGTACGTCAT | 1.08 ± 0.04

Row | Sequence | switch fluorescence ratio
93 | CCGTTGAGCG | 1.03 ± 0.03
94 | GGGGGGAACG | 0.971 ± 0.024
95 | TGTATAATGT | 0.985 ± 0.029
96 | ATAGTTTAGG | 1.016 ± 0.0076
97 | CGTGGTTTTT | 1.01 ± 0.023
98 | AGATCGTGAG | 0.97 ± 0.038
99 | GACGTGGTTT | 0.994 ± 0.046
100 | GAAGTTCGTG | 1.01 ± 0.055
101 | CATGGGTCCT | 1.04 ± 0.033
102 | TGCGAAAGAT | 1.05 ± 0.086
103 | TGTTGTATAT | 1 ± 0.023
104 | AGTTTGATGT | 1 ± 0.023
105 | AAGGATATGG | 1.02 ± 0.016
106 | TAGATCGAAC | 1.02 ± 0.024
107 | AAGGTGGATG | 0.992 ± 0.021
108 | GGTAGTTTTC | 0.9916 ± 0.0039
109 | ATCATAATCT | 1.013 ± 0.0034
110 | TATAAGAGTG | 1.03 ± 0.032
111 | CATGTGATTA | 1.007 ± 0.01
112 | CGGTGCTGCG | 1.065 ± 0.0039
113 | TACTGTACTC | 1.54 ± 0.035
114 | TTAAATTCGC | 0.999 ± 0.0094
115 | GCAGGCTACA | 1.02 ± 0.019

Row | Sequence | switch fluorescence ratio
116 | TTTGGCGCGA | 1.43 ± 0.58
117 | TTAAGACGTC | 1.01 ± 0.0011
118 | AGTATTCGGG | 0.976 ± 0.058
119 | TGGGGAGCTT | 0.99 ± 0.023
120 | TTTGGTTTTT | 0.999 ± 0.031
121 | ATGTAACGGG | 1.03 ± 0.021
122 | GGATGGTAGC | 1.01 ± 0.013
123 | TTCTTGAGTA | 0.984 ± 0.019
124 | TTATGGAAGG | 1.03 ± 0.02
125 | ATTTTTTCCT | 1.03 ± 0.022
126 | CATTTGGATT | 1.04 ± 0.012
127 | TTCAAAGAGT | 0.994 ± 0.019
128 | CAGGGGGGGC | 1.01 ± 0.026
129 | GTGCGCATTG | 1.03 ± 0.046
130 | TAGTGGGTCC | 1.02 ± 0.037
131 | GCCCCACCTT | 1.08 ± 0.021
132 | CATAGCAAGG | 1.66 ± 0.099
133 | TGCAATCGGT | 1.22 ± 0.065
134 | TAGGGGTCAA | 0.99815 ± 0.0002
135 | AAAAAAGGGA | 0.995 ± 0.022
136 | GTGAAGACGT | 1.002 ± 0.0077
137 | TTAGTAGGGT | 0.983 ± 0.04
138 | TTTTTGGACA | 0.993 ± 0.019

Row | Sequence | switch fluorescence ratio
139 | GGCGGTGGCA | 1.01 ± 0.026
140 | CGTTGCATGC | 1.39 ± 0.099
141 | TTGGGAGAAG | 0.993 ± 0.051
142 | AGCGAATATT | 1.08 ± 0.098
143 | TTGGTTTCTT | 1.01 ± 0.023
144 | TTTACTCGGA | 1.033 ± 0.0099
145 | ATTAGCATCG | 0.981 ± 0.026
146 | TGGGGTTCGT | 0.998 ± 0.066
147 | CAGATATTGG | 1.02 ± 0.023
148 | ATTCCCCGGG | 1.66 ± 0.68
149 | CGGGAGCGGA | 0.995 ± 0.018
150 | TTGGAAAGCA | 1.03 ± 0.027
151 | GGGTTCGGTG | 1.01 ± 0.039
152 | TTGGGGTCCT | 0.984 ± 0.023
153 | TACTGCAATT | 1.35 ± 0.22
154 | GCTTGAGTAC | 0.992 ± 0.037
155 | AGTGTAAAGG | 0.991 ± 0.076
156 | AATTTTTCGC | 0.98 ± 0.024
157 | TCTCAGTCCA | 1.02 ± 0.039

— the supplement of paper PMC10126150
